Test results as given in PMC9884874 (Journal for Immunotherapy of Cancer, 2023).

Tests used:
tumor = conditions: single agent or in combination with anti-PD-1 ab, mouse models; cited from earlier work
[1] = test system: mouse bone-marrow-derived macrophages (BMDM); assay: uptake of pHrodo-labeled apoptotic thymocytes by BMDM; assay type: cell-based; conditions: pHrodo-labeled apoptotic thymocytes as target cells
Ccn1 = Ccn1 mRNA level in cells; assay type: cell-based, mouse
CD8+ T cells = CD8+ T cells co-cultured with MC38 CCM-educated MQ or DC; assay type: cell-based, mouse
BMDM = assay: recombinant CCN1 treatment of BMDM, CD206+ frequency; assay type: cell-based, mouse
mouse peritoneal MQ = conditions: 100 µg/mL CCN1, direct exposure; cited from earlier work

CCOc1ccn(-c2ccc(F)cc2)c(=O)c1C(=O)Nc1ccc(Oc2ccnc(N)c2Cl)c(F)c1 [BMS-777607]
tumor-growth-inhibitory effects (tumor): excellent tumor-growth-inhibitory effects

COc1cc2nccc(Oc3ccc(NC(=O)c4cn(C(C)C)c(=O)n(-c5ccc(F)cc5)c4=O)cc3F)c2cc1OC [RXDX-106]
tumor-growth-inhibitory effects (tumor): excellent tumor-growth-inhibitory effects

CCCCNc1ncc(-c2ccc(CN3CCOCC3)cn2)c(NC2CCC(O)CC2)n1 (stereo not drawn) [UNC2250]
ability of phagocytosis in BMDM [1]: significantly decreased
mRNA level of Ccn1 in BMDM primed with MC38 culture media (Ccn1): could not decrease

B1: CCN1: recombinant CCN1, a secreted matricellular protein, added to macrophages (protein, UniProt O00622 25-381, looked up)
CCN family member 1: TCPAACHCPLEAPKCAPGVGLVRDGCGCCKVCAKQLNEDCSKTQPCDHTKGLECNFGASSTALKGICRAQSEGRPCEYNSRIYQNGESFQPNCKHQCTCIDGAVGCIPLCPQELSLPNLGCPNPRLVKVTGQCCEEWVCDEDSIKDPMEDQDGLLGKELGFDASEVELTRNNELIAVGKGSSLKRLPVFGMEPRILYNPLQGQKCIVQTTSWSQCSKTCGTGISTRVTNDNPECRLVKETRICEVRPCGQPVYSSLKKGKKCSKTKKSPEPVRFTYAGCLSVKKYRPKYCGSCVDGRCCTPQLTRTVKMRFRCEDGETFSKNVMMIQSCKCNYNCPHANEAAFPFYRLFNDIHKFRD
effect of CCN1 addition on KRCT87-mediated immune-boosting effects (CD8+ T cells; CCN1 addition to DC): could not nullify
effect of CCN1 addition on KRCT87-elevated granzyme B, IFN-γ, TNF-α production (CD8+ T cells; MQ educated by MC38-CCM): completely reversed
frequency of M2-skewed MQ (BMDM; 10–500 ng/mL CCN1): increases
frequency of CD206+ BMDM (BMDM; recombinant CCN1, concentration-dependent and in presence of MC38 CCM): increased
differentiation into M1-skewing MQ producing pro-inflammatory cytokines (mouse peritoneal MQ): promotes differentiation into M1-skewing MQ
